To fix the notation:
B1: recombinant mSir2α mutant T336A (protein)
chain: MADEVALALQAAGSPSAAAAMEAASQPADEPLRKRPRRDGPGLGRSPGEPSAAVAPAAAGCEAASAAAPAALWREAAGAAASAEREAPATAVAGDGDNGSGLRREPRAADDFDDDEGEEEDEAAAAAAAAAIGYRDNLLLTDGLLTNGFHSCESDDDDRTSHASSSDWTPRPRIGPYTFVQQHLMIGTDPRTILKDLLPETIPPPELDDMTLWQIVINILSEPPKRKKRKDINTIEDAVKLLQECKKIIVLTGAGVSVSCGIPDFRSRDGIYARLAVDFPDLPDPQAMFDIEYFRKDPRPFFKFAKEIYPGQFQPSLCHKFIALSDKEGKLLRNYAQNIDTLEQVAGIQRILQCHGSFATASCLICKYKVDCEAVRGDIFNQVVPRCPRCPADEPLAIMKPEIVFFGENLPEQFHRAMKYDKDEVDLLIVIGSSLKVRPVALIPSSIPHEVPQILINREPLPHLHFDVELLGDCDVIINELCHRLGGEYAKLCCNPVKLSEITEKPPRPQKELVHLSELPPTPLHISEDSSSPERTVPQDSSVIATLVDQATNNNVNDLEVSESSCVEEKPQEVQTSRNVENINVENPDFKAVGSSTADKNERTSVAETVRKCWPNRLAKEQISKRLEGNQYLFVPPNRYIFHGAEVYSDSEDDVLSSSSCGSNSDSGTCQSPSLEEPLEDESEIEEFYNGLEDDTERPECAGGSGFGADGGDQEVVNEAIATRQELTDVNYPSDKS
B2: recombinant mSir2α mutant H355A (protein)
chain: MADEVALALQAAGSPSAAAAMEAASQPADEPLRKRPRRDGPGLGRSPGEPSAAVAPAAAGCEAASAAAPAALWREAAGAAASAEREAPATAVAGDGDNGSGLRREPRAADDFDDDEGEEEDEAAAAAAAAAIGYRDNLLLTDGLLTNGFHSCESDDDDRTSHASSSDWTPRPRIGPYTFVQQHLMIGTDPRTILKDLLPETIPPPELDDMTLWQIVINILSEPPKRKKRKDINTIEDAVKLLQECKKIIVLTGAGVSVSCGIPDFRSRDGIYARLAVDFPDLPDPQAMFDIEYFRKDPRPFFKFAKEIYPGQFQPSLCHKFIALSDKEGKLLRNYTQNIDTLEQVAGIQRILQCAGSFATASCLICKYKVDCEAVRGDIFNQVVPRCPRCPADEPLAIMKPEIVFFGENLPEQFHRAMKYDKDEVDLLIVIGSSLKVRPVALIPSSIPHEVPQILINREPLPHLHFDVELLGDCDVIINELCHRLGGEYAKLCCNPVKLSEITEKPPRPQKELVHLSELPPTPLHISEDSSSPERTVPQDSSVIATLVDQATNNNVNDLEVSESSCVEEKPQEVQTSRNVENINVENPDFKAVGSSTADKNERTSVAETVRKCWPNRLAKEQISKRLEGNQYLFVPPNRYIFHGAEVYSDSEDDVLSSSSCGSNSDSGTCQSPSLEEPLEDESEIEEFYNGLEDDTERPECAGGSGFGADGGDQEVVNEAIATRQELTDVNYPSDKS
B3: recombinant mSir2α mutant P285A (protein)
chain: MADEVALALQAAGSPSAAAAMEAASQPADEPLRKRPRRDGPGLGRSPGEPSAAVAPAAAGCEAASAAAPAALWREAAGAAASAEREAPATAVAGDGDNGSGLRREPRAADDFDDDEGEEEDEAAAAAAAAAIGYRDNLLLTDGLLTNGFHSCESDDDDRTSHASSSDWTPRPRIGPYTFVQQHLMIGTDPRTILKDLLPETIPPPELDDMTLWQIVINILSEPPKRKKRKDINTIEDAVKLLQECKKIIVLTGAGVSVSCGIPDFRSRDGIYARLAVDFPDLPDAQAMFDIEYFRKDPRPFFKFAKEIYPGQFQPSLCHKFIALSDKEGKLLRNYTQNIDTLEQVAGIQRILQCHGSFATASCLICKYKVDCEAVRGDIFNQVVPRCPRCPADEPLAIMKPEIVFFGENLPEQFHRAMKYDKDEVDLLIVIGSSLKVRPVALIPSSIPHEVPQILINREPLPHLHFDVELLGDCDVIINELCHRLGGEYAKLCCNPVKLSEITEKPPRPQKELVHLSELPPTPLHISEDSSSPERTVPQDSSVIATLVDQATNNNVNDLEVSESSCVEEKPQEVQTSRNVENINVENPDFKAVGSSTADKNERTSVAETVRKCWPNRLAKEQISKRLEGNQYLFVPPNRYIFHGAEVYSDSEDDVLSSSSCGSNSDSGTCQSPSLEEPLEDESEIEEFYNGLEDDTERPECAGGSGFGADGGDQEVVNEAIATRQELTDVNYPSDKS
B4: recombinant mSir2α mutant R266A (protein)
chain: MADEVALALQAAGSPSAAAAMEAASQPADEPLRKRPRRDGPGLGRSPGEPSAAVAPAAAGCEAASAAAPAALWREAAGAAASAEREAPATAVAGDGDNGSGLRREPRAADDFDDDEGEEEDEAAAAAAAAAIGYRDNLLLTDGLLTNGFHSCESDDDDRTSHASSSDWTPRPRIGPYTFVQQHLMIGTDPRTILKDLLPETIPPPELDDMTLWQIVINILSEPPKRKKRKDINTIEDAVKLLQECKKIIVLTGAGVSVSCGIPDFASRDGIYARLAVDFPDLPDPQAMFDIEYFRKDPRPFFKFAKEIYPGQFQPSLCHKFIALSDKEGKLLRNYTQNIDTLEQVAGIQRILQCHGSFATASCLICKYKVDCEAVRGDIFNQVVPRCPRCPADEPLAIMKPEIVFFGENLPEQFHRAMKYDKDEVDLLIVIGSSLKVRPVALIPSSIPHEVPQILINREPLPHLHFDVELLGDCDVIINELCHRLGGEYAKLCCNPVKLSEITEKPPRPQKELVHLSELPPTPLHISEDSSSPERTVPQDSSVIATLVDQATNNNVNDLEVSESSCVEEKPQEVQTSRNVENINVENPDFKAVGSSTADKNERTSVAETVRKCWPNRLAKEQISKRLEGNQYLFVPPNRYIFHGAEVYSDSEDDVLSSSSCGSNSDSGTCQSPSLEEPLEDESEIEEFYNGLEDDTERPECAGGSGFGADGGDQEVVNEAIATRQELTDVNYPSDKS

Here are results for 4 proteins from US8642284.

This data set has as its target histone H2B (calf thymus), P62808.
Turning to B1, the “mono-ADP-ribosylation activity relative to wild type (Phosphorimaging)” value is listed as “completely abolished the activity”.

For the protein B2, the “mono-ADP-ribosylation activity relative to wild type (Phosphorimaging)” value is listed as “completely abolished the activity”.

Regarding B3, the “mono-ADP-ribosylation activity relative to wild type (Phosphorimaging)” value was 5% for P285A.

With B4, the “mono-ADP-ribosylation activity relative to wild type (Phosphorimaging)” value worked out at 18% for R266A.
